Data from article PMC3597040.

Assays:
[1] = molecular target: AfTrax (Archaeoglobus fulgidus Trax homologue, AF2260), wild type (Archaeoglobus fulgidus); test: crystal structure
[2] = molecular target: AfTrax (Archaeoglobus fulgidus Trax homologue, AF2260), wild type (Archaeoglobus fulgidus); test: SEC
[3] = molecular target: AfTrax D114A catalytic mutant (Archaeoglobus fulgidus); test: crystal structure

Substance | stoichiometry N [1] | stoichiometry N [2] | stoichiometry N [3]
AfTrax (Archaeoglobus fulgidus Trax homologue, AF2260), wild type (natural protein) | 8 | 8 | 
AfTrax D114A catalytic mutant (natural protein) |  |  | 8
